Patent US20170052184A1 (published 2017)

Legend:
Assay in all cases: EIA, captured mAb + biotin peptide
[1] = molecular target: T1, HCV bt-134-154 (Peptide 1, HCVc 134-154) (Hepatitis C virus (numbering per HCV-1), biotin (carboxy-terminal per; N-terminal per))
T1 peptide: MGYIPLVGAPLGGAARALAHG

[2] = molecular target: T2, HCV bt-141-161 (Peptide 2, HCVc 141-161) (Hepatitis C virus (numbering per HCV-1), biotin (carboxy-terminal per; N-terminal per))
T2 peptide: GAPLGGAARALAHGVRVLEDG

[3] = molecular target: T3, HCV bt-151-171 (Peptide 3, HCVc 151-171) (Hepatitis C virus (numbering per HCV-1), biotin (carboxy-terminal per; N-terminal per))
T3 peptide: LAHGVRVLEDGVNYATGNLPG

B1: HCV 208B-560 (antibody, V domains shown)
VH: EVQLQQSGPELEKPGASVKISCKTSGYTFTEYAMHWVKQSHGMSLEWIGGINPSNGNAIYNQIFKDKATLTVDRSSSTAYMGLRSLTFGDSGVYFCVRRQLDFFDYWGQGASLTVSS
VL: DIVVTQSPASLAVSLGQRATISCRASQSVSTSRYSYLHWYQQKPGQPPKLLIKYASNLESGVPARFSGSGSGTDFTLNIHPVGEEDTATYYCQHSWEFPFTFGSGTKLEIKR
Reactivity (OD 492 nm) [1]: 0.11 OD units | Reactivity (OD 492 nm) [2]: 3.9 OD units | Reactivity (OD 492 nm) [3]: 0.14 OD units

B2: HCV 208A-830 (antibody, V domains shown)
VH: EVRLQQPGPEVEKPGASVKISCKTSGYTFTEYAIHWVKQSHGESLEWIGGINPSNGDPIYNQIFKDKATLTVDRSSNTAYMGLRSLTVGDSGVYFCVRRQLDYFDFWGQGASLTVSS
VL: DIVLTQSPASLAVSLGQRATISCRSSQSVSTSRYSYLHWYQQKPGQPPKLLIKYASNLESGVPARFSGSGSGTDFTLNIHPVGEEDPATYYCQHSWEFPFTFGSGTKLEIKR
Reactivity (OD 492 nm) [1]: 0.07 OD units | Reactivity (OD 492 nm) [2]: 2.88 OD units | Reactivity (OD 492 nm) [3]: 0.08 OD units

B3: HCV 208A-605 (antibody, V domains shown)
VH: EVQLQQSGPELEKPGASVKISCKTSGYTFTEYAIHWVKQSHGMSLEWIGGINPSNGNAIYNQIFKDKATLTVDRSSSTAYMGLRSLTFGDSGVYFCVRRQLDFFDYWGQGASLTVSS
VL: DIVVTQSPASLAVSLGQRATISCRASQSVSTSRYSYLHWYQQKPGQPPKLLIKYASNLESGVPARFSGSGSGTDFTLNIHPVGEEDTATYYCQHSWEFPFTFGSGTKLEIKR
Reactivity (OD 492 nm) [1]: 0.22 OD units | Reactivity (OD 492 nm) [2]: 3.71 OD units | Reactivity (OD 492 nm) [3]: 0.16 OD units

B4: HCV 208A-222 (antibody, V domains shown)
VH: EVQLQQSGPELEKPGASVRISCKTSGYTFTEYAMHWVKQSHGKSLEWIGGINPNNGNAIYNQIFKDKATLTVDRSSSTAYMGLRSLTFGDSGVYFCVRRQLDYFDYWGQGASLTVSS
VL: DIVVTQSPASLAVSLGQRATISCRASQSVSTSRYSYLHWYQQKPGQPPKLLIKYASNLESGVPARFSGSGSGTDFTLNIHPVGEEDTATYYCQHSWEFPFTFGSGTKLEIKR
Reactivity (OD 492 nm) [1]: 0.06 OD units | Reactivity (OD 492 nm) [2]: 2.7 OD units | Reactivity (OD 492 nm) [3]: 0.08 OD units

B5: HCV 208B-178 (antibody, V domains shown)
VH: DVKLVESGGGLVKLGGSLKLSCAASGFTFSSYYMSWVRQTPEKRLELVAAINSNGGSTYYPDTVKGRFTISRDNAKNTLYLQMSSLKSEDTALYYCARHGGLGRRDWYFDVWGAGTTVTVSS
VL: DIVLTQSPASLAVSLGQRATISCRASESVDNYGISFMHWYQQKPGQPPKLLIYRASNLESGIPARFSGSGSRTDFTLTINPVETDDVATYYCQQSNKDPFTFGSGAKLEIKR
Reactivity (OD 492 nm) [1]: 0.1 OD units | Reactivity (OD 492 nm) [2]: 0.07 OD units | Reactivity (OD 492 nm) [3]: 1.69 OD units

B6: HCV 208B-589 (antibody, V domains shown)
VH: QVQLQQSGAGLAKPGASVKMSCKASGYTFTANKMHWAKQRPGQGLEWIGYIDPSSGYTEYNHKIQDKATLTADTSSSTAYMQLSSLTFEDSAVYYCTNFAYWGQGTLVTVSA
VL: DIVMTQTPLTLSVTIGQPASISCKSSQSLLFTNGKTYLNWFLQRPGQSPKRLIYLLSKLDSGVPDRFSGSGSGTDFTLKISRVEAEDLGVYYCLQSTYFPLTFGAGTKLELKR
Reactivity (OD 492 nm) [1]: 0.27 OD units | Reactivity (OD 492 nm) [2]: 0.1 OD units | Reactivity (OD 492 nm) [3]: 2.85 OD units

B7: HCV 208A-874 (antibody, V domains shown)
VH: QVQLQQPGAELVKPGASVKLSCKASGYTLSSYWMHWVKQRPGQGLEWIGEIHPSDSYTSYNQKFKDKATLTVDKSSSTAYMQLSSLTSEDSAVYYCARGGYYRYDEFAYWGQGTLVTVSA
VL: DIVMTQSHKFMSTSIGDRVSITCKASQNVSPAVAWYQQKPGQSPKLLIYSASSRYTGVPDRFTGSGSGTAFTFTISSVQAEDLAVYFCQQHFSTPWTFGGGTMLEIKR
Reactivity (OD 492 nm) [1]: 0.05 OD units | Reactivity (OD 492 nm) [2]: 0.73 OD units | Reactivity (OD 492 nm) [3]: 0.06 OD units

B8: HCV 208A-983 (antibody, V domains shown)
VH: QGQMQQSGAELVKPGASVKLSCKTSGFTFSSSYFSWLKQKPGQSLEWIAWIYAGTGNTIYNQKFTDKAQLTVDTASSTAFMQLSSLTIEDSAIYYCAISGTGFTYWGQGTLVTVSA
VL: DVLMTQTPLSLPVNLGDQASISCRSSQSLLHSNGNTYLEWFLQKPGQSPKLLIYNVSNRFSGVPDRFSGSGSGTDFTLKISRVEAEDLGVYYCFQGSHVPFTFGSGTKLAIKR
Reactivity (OD 492 nm) [1]: 3.03 OD units | Reactivity (OD 492 nm) [2]: 0.4 OD units | Reactivity (OD 492 nm) [3]: 0.05 OD units

B9: HCV 208A-557 (antibody, V domains shown)
VH: QGQMQQSGAELVKPGASVKLSCKTSGFTFSSSYISWLKQKPGQSLEWIAWIYAGTGNTNYNQKFTDKAQLTVDTSSSTAYMQLSSLTTEDSAIYYCAISGTGFTYWGQGTLVTVSA
VL: DIALTQSPASLAVSLGQRATISCRASQSVSTSRYSYMHWYQQKPGQPPELLIKYASNLESGVPARFSGSGSGTDFTLNIHPVGEEDTATYYCQHSWDFPFTFGSGTKLEIKR
Reactivity (OD 492 nm) [1]: 0.05 OD units | Reactivity (OD 492 nm) [2]: 2.41 OD units | Reactivity (OD 492 nm) [3]: 0.06 OD units

B10: HCV 208B-1024 (antibody, V domains shown)
VH: EVQLVESGGDLVKPGGSLKLSCAASGFTFSNYGMSWVRQTPDKRLEWVATISSGGSYSYYPDSVKGRFTISRDNAKNILYLQMSSLKSEDTAMYYCASLYYGYGDYWGQGTAFTVSS
VL: DVLMTQTPLSLPVSLGDQASISCRSSQSIVHSNGNTYLEWYLQKLGQSPKLLIYRVSNRFSGVPDRFSGSGSGTDFTLKISRVEAEDLGVYYCFQGSHVPWTFGGGTKLEIKR
Reactivity (OD 492 nm) [1]: 0.08 OD units | Reactivity (OD 492 nm) [2]: 0.75 OD units | Reactivity (OD 492 nm) [3]: 0.15 OD units

B11: HCV 208A-134 (antibody, V domains shown)
VH: QGQMQQSGAELAKPGASVKLSCKTSGFTFSSSYISWLKQKPGQSLEWIAWIYAGTGNTNYNQKFTDKAQLTVDTSSSTAYMQLSSLTTEDSAIYYCAISGTGFTYWGQGTLVTVSA
VL: EVLMTQSPLSLPVSLGDQASISCRSSQSLEHTNGNTYLEWFLQRPGQPPKLLIYKVSSRFSGVPDRFSGSGSGTDFTLKISRVEAEDLGVYYCFQGSHVPFTFGSGTKLAIKR
Reactivity (OD 492 nm) [1]: 2.06 OD units | Reactivity (OD 492 nm) [2]: 0.08 OD units | Reactivity (OD 492 nm) [3]: 0.06 OD units

B12: HCV 208B-281 (antibody, V domains shown)
VH: QGQLQQSGAELVKPGASVKLSCKTSGFTFSSSYISWLKQRPGQSLEWIAWIYAGTGGTNYNQKFTDKAQLTVDTSSSTAYMQFSSLTTEDSAIYYCAISGTGFIYWGQGTLVTVSA
VL: DVLMTQTPLSLPVSLGDQASISCRSSQSLVHNNGNTYLEWFLQKPGQSPKLLIYKVSNRFSGVPDRFSGSGSGTDFTLKISRVEAEDLGVYYCFQGSHVPFTFGSGTKLEIKR
Reactivity (OD 492 nm) [1]: 1.48 OD units | Reactivity (OD 492 nm) [2]: 0.16 OD units | Reactivity (OD 492 nm) [3]: 0.12 OD units

B13: HCV 208B-174 (antibody, V domains shown)
VH: EVKLEESGGGLVQPGGSMKLSCVASGFSFSSYWMSWVRQSPEKGLDWVAEIRLRSDNYATHYAESVKGRFTISRDDSISRLYLQMNTLRAEDTGIYYCTWMTYWGQGTLVTVSA
VL: QNVLTQSPAIMSASPGEKVTMSCSASSSVTYMFWYQLKPESSPRLLIYDTSNLASGVPVRFSGSGSGTSYSLTISRMEAEDAATYYCQEWSSYPLTFGAGTKLDLKR
Reactivity (OD 492 nm) [1]: 0.08 OD units | Reactivity (OD 492 nm) [2]: 1.26 OD units | Reactivity (OD 492 nm) [3]: 0.07 OD units

B14: HCV 208A-638 (antibody, V domains shown)
VH: QGQLQQPGAEFVKPGASLKLSCRASGYTFTSYWIHWVKQRPGQGLEWIGEVDPSDSYINQNEKFRGKATLTVDKSSSTAYMQLGSLTSEDSAVYYCARHYYGVLDSWGQGTALTVSS
VL: QIVLTQSPTIMSASLGERVTMTCTASSSVSSSYLHWFQQKPGSSPKLWIYSTSNLASGVPPRFSGSGSGTSYSLSISSVEAEDVATYYCLQFHRSPWTFGGGAKLEIKR
Reactivity (OD 492 nm) [1]: 0.07 OD units | Reactivity (OD 492 nm) [2]: 2.96 OD units | Reactivity (OD 492 nm) [3]: 0.09 OD units

B15: HCV 208A-422 (antibody, V domains shown)
VH: DVQLQESGPGLVNPSQSLSLTCSVTGYSITSGYYWIWIQQSPGNKLEWMGYIKYDGGNNYSPSLKNRISIARDTSKNQCFLKLNSVTIEDTATYYCTRGSDSFDYWGQGTTLTVSS
VL: DIVLTQSPASLAVSLGQRAIISCKASQSVSFAGTNLMHWYQQKPGQQPKLLIYRASNLETGVPTRFSGSGSRTDFTLNIHPVEEDDAATYYCQQSREYYTFGGGTKLEIKR
Reactivity (OD 492 nm) [1]: 0.05 OD units | Reactivity (OD 492 nm) [2]: 0.84 OD units | Reactivity (OD 492 nm) [3]: 0.1 OD units

B16: HCV 208A-442 (antibody, V domains shown)
VH: DVQLQESGPGLVNPSQSLSLTCSVTGYSITSGYYWIWIRQFPGNKLEWMGYIKYDGGNNYSPSLKNRISIARDTSKNQFFLKLNSVTIEDTATYYCTRGSDSFDYWGQGTTLTVSS
VL: DIVLTQSPASLAVSLGQRAIISCKASQSVSFAGTNLMHWYQQKPGQQPKLLIYRASNLETGVPTRFSGSGSRTDFTLNIHPVEEDDAATYYCQQSREYYTFGGGTKLEIKR
Reactivity (OD 492 nm) [1]: 0.08 OD units | Reactivity (OD 492 nm) [2]: 3.04 OD units | Reactivity (OD 492 nm) [3]: 0.06 OD units

B17: HCV 208B-189 (antibody, V domains shown)
VH: QVHLQQSGAELAKPGASVQMSCKASGYTFTANKMHWARQRPRQGLEWIGYIDPASGYTEYNQKIKDRATLTADKSSSTAYMQLSSLTSEDSAVYYCTNFAYWGQGTLVTVST
VL: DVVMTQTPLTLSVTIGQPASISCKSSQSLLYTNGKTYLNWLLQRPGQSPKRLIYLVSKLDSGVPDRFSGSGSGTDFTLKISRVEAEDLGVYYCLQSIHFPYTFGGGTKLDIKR
Reactivity (OD 492 nm) [1]: 0.55 OD units | Reactivity (OD 492 nm) [2]: 0.15 OD units | Reactivity (OD 492 nm) [3]: 3.95 OD units

B18: HCV 208A-877 (antibody, V domains shown)
VH: QLQQSGPELVKPGASVKISCKTSGYTFTENAMHWVKQSRGKSLEWIGGVNPNNGDTVYTQKFKGKATLTVAKSSSTAYMELRTMTCEESTVYYCASREPDFFDYWGQGSSVTVSS
VL: QIVLTQSPAIMSVSPGEKVSMTCSASSSVTYMHWYQQKSGTSPKRWIYDTSELASGVPARFSGSGSGTTYSLTISSMEAEDAATYYCQQWSNKPLTFGAGTKLELKR
Reactivity (OD 492 nm) [1]: 0.06 OD units | Reactivity (OD 492 nm) [2]: 1.21 OD units | Reactivity (OD 492 nm) [3]: 0.05 OD units
